This is an account of results in PMC12699829, “Development of a glutamine-responsive MRI contrast agent” (Chemical Science, 2025).

Format in all cases: physicochemical
Data set [1] is described as follows: Stability of swArM samples prepared in PBS buffer for relaxivity studies. An excerpt: Next, we set out to investigate alternative ligands to coordinate Ln^3+ ions. As shown in Chart 1, we investigated two DOTA derivatives (DOTA-mal^N and DOTA-mal^C) as well as an acyclic version of DOTA, diethylene triamine pentaacetic acid (DTPA), and a six-coordinate version of the eight-coordinate DOTA ligand, nonane triacetic acid (NOTA). […] This ligand has previously been tested with Gd^3+ as an MRI contrast agent in PBS buffer, with no reported stability issues.[40] The fact that conjugation to our protein decreased the kinetic stability of Gd(NOTA) exemplifies the impact of the specific protein environment.

A short description of data set [2]: T1 and T2 relaxivity measurements at 9.4 T (400 MHz NMR). The settings on record: for Holo/Apo % r1 Change / Holo/Apo % r2 Change: 37 °C; for r1 (Holo) / r2 (Holo) / r1 (Apo) / r2 (Apo): PBS buffer pH 7.4, 37 °C; for r1 (Holo) / r2 (Holo): with Gln; for r1 (Apo) / r2 (Apo): without Gln. The procedure: The effectiveness of a contrast agent depends on its “relaxivity”, which is measured in units of mM^−1 s^−1, and quantifies how much a given concentration of the contrast agent improves water relaxation rates. T1 and T2 relaxivities are denoted r1 and r2, respectively, and are calculated according to eqn (1):1 [drawing 1] Here, Ti and Ti^0 are the relaxation times in the presence and absence of the contrast agent, respectively, and [C] is the concentration of the contrast agent. […] The relaxivity of a contrast agent depends not only on the properties of the molecule but also on the strength of the magnetic field used for the measurement. Whereas early MRI instruments were relatively weak (<1 T), the modern clinical standard has risen to 1–3 T, wth an increasing number of even more powerful instruments (>3 T) in recent years. Thus, we performed relaxivity experiments at both the most clinically relevant field strengths 1.4 T and at the more cutting-edge field strength of 9.4 T.
10% D 2O (assay buffer). S tock solutions of swArM in assay buffer was prepared at1.11, 0.83, 0.56, and 0.28 mM. Apo- and holo-swArM samples were prepared from the same stock by adding either 20 μL assay buffer or 20 μL 0. 1 M Gln in assay buffer, to 180 μL of protein solution, respectively. Final protein concentrations were verified using the molar extinction coefficient ε28 0 = 25.9 mM -1 cm -1.
B. NM R M easu r ements . Relaxivities of all variants were determined at 37 °C from spectra taken at 9.4 T (400 mHz) using a Varian Inova 400 -MHz NMR spectrometer equipped with a Nalorac, 5 mm, DR probe. Select variants were also investigated at 32°C at 1.4 T (60 mHz) using a Nanalysis NMReady60 Pro instrument. Measurements were typically performed on 4 diffe rent concentrations of contrast agent and on the same buffer with no contrast agent. Temperature- dependent relaxivity measurements were performed using a Varian Inova 500-MHz NMR spectrometer, equipped with a Vari an, 5-mm, TR PFG probe with inverse proton detection. Temperature- dependent relaxivity was determined using either two concen trations of contrast agent ( 0. 5 and 1. 0 mM ) or t hree (0. 3, 0. 6, and 0.9 mM) . The temperature was calibrated using the 1H NMR signal of ethylene glycol.20 T1 measurements were performed using the inversion recovery method21 and T2 measurements were performed using the Carr–Purcell–Meiboom –G ill (CPMG) p ulse […]
Six or more pulse delay times (τ) were chosen to ensure coverage of the Ti under observation, and the delay between pulse sequences was set to at least 5-times T1.
Optimized 90° and 180° pulse widths were determined on the day of the experiment, and typically spanned 16‒2 0 μs (90° pulse width) and 32‒4 0 μs (180° pulse width). The delay in the CPMG pulse sequence was set to at least 50 times the 180° pulse width to allow at least four echo loops .
C. A n al ysi s . To determine Ti, data were analyzed via MestReNova software. For each spectrum, an integration was performed over the water peak, and the values obtained (dependent variable) were plotted against τ (independent variable). […]
then fit to a monoexponential decay according to Eq. 1. From these analyses, we obtain Ti for each sample concentration and type.
The quantity described by Eq. 2, where Ti at zero added sample is T0, was then plotted against the swArM concentration and a linear regression model was applied. The slope of this line gives the contrast agent relaxivity ri.

Data set [3] in a line: T1 and T2 relaxivity measurements at 1.4 T (60 MHz NMR). The settings on record: for Holo/Apo % r1 Change / Holo/Apo % r2 Change: 32 °C.
The mark [4] stands for this setting: PBS buffer pH 7.4, 32 °C, with Gln.
[5] abbreviates: PBS buffer pH 7.4, 32 °C, without Gln.
Setting [6] is: listed as [Dy(DOTA-mal^N)]72-GlnBP.

Like-named read-outs stand apart in the source and are kept apart here.

B1: [Gd(DTPA-malN)]72: swArM: Gd complex of maleimide-functionalized DTPA attached at Cys72 of T72C-GlnBP (conjugate, UniProt P0AEQ3 23-248, looked up, variant T72C)
Glutamine-binding periplasmic …: ADKKLVVATDTAFVPFEFKQGDKYVGFDVDLWAAIAKELKLDYELKPMDFSGIIPALQTKNVDLALAGITICDERKKAIDFSDGYYKSGLLVMVKANNNDVKSVKDLDGKVVAVKSGTGSVDYAKANIKTKDLRQFPNIDNAYMELGTNRADAVLHDTPNILYFIKTAGNGQFKAVGDSLEAQQYGIAFPKGSDELRDKVNGALKTLRENGTYNEIYKKWFGTEPK
modifications: Gd(DTPA-mal) at Cys72
notes: swArM: Gd complex of maleimide-functionalized DTPA attached at Cys72 of T72C-GlnBP
For the molecule B1, in data set [1], the “stability of the swArM in PBS buffer (metal loss, precipitate)” value is “did not observe loss of metal to solution over time”. Besides, in data set [2], the “Holo/Apo % r1 Change” value is on record as 3 ± 3%, the “Holo/Apo % r2 Change” value worked out at 10 ± 10%, the “r1 (Holo)” value was determined as 4.14 ± 0.05 mM⁻¹ s⁻¹ and the “r2 (Holo)” value was determined as 72 ± 4 mM⁻¹ s⁻¹. For the same molecule, in data set [2], the “r1 (Apo)” value turned out to be 4.0 ± 0.1 mM⁻¹ s⁻¹ and the “r2 (Apo)” value is 65 ± 4 mM⁻¹ s⁻¹. Also, in data set [3], the “Holo/Apo % r1 Change” value is 7 ± 4% and the “Holo/Apo % r2 Change” value is 11 ± 6%. In data set [3] (setting [4]), the “r1 (Holo)” value worked out at 17.8 mM⁻¹ s⁻¹ and the “r2 (Holo)” value worked out at 30.3 ± 0.9 mM⁻¹ s⁻¹. In data set [3] (setting [5]), the “r1 (Apo)” value came to 16.7 mM⁻¹ s⁻¹ and the “r2 (Apo)” value turned out to be 27 ± 1 mM⁻¹ s⁻¹.

B2: [Dy(DOTA-mal^N)]72: swArM: Dy(DOTA-mal^N) attached at Cys72 of T72C-GlnBP (conjugate, UniProt P0AEQ3 23-248, looked up, variant T72C)
Glutamine-binding periplasmic …: ADKKLVVATDTAFVPFEFKQGDKYVGFDVDLWAAIAKELKLDYELKPMDFSGIIPALQTKNVDLALAGITICDERKKAIDFSDGYYKSGLLVMVKANNNDVKSVKDLDGKVVAVKSGTGSVDYAKANIKTKDLRQFPNIDNAYMELGTNRADAVLHDTPNILYFIKTAGNGQFKAVGDSLEAQQYGIAFPKGSDELRDKVNGALKTLRENGTYNEIYKKWFGTEPK
modifications: Dy(DOTA-malN) at Cys72
notes: swArM: Dy(DOTA-mal^N) attached at Cys72 of T72C-GlnBP
Take B2: in data set [2], the “Holo/Apo % r1 Change” value was “–1 ± 5%”, the “Holo/Apo % r2 Change” value turned out to be 36 ± 3%, the “r1 (Holo)” value came out at 0.37 ± 0.02 mM⁻¹ s⁻¹ and the “r1 (Apo)” value amounted to 0.37 ± 0.01 mM⁻¹ s⁻¹. Moreover, in data set [2], the “r2 (Apo)” value was 6.83 ± 0.04 mM⁻¹ s⁻¹. In data set [2] (setting [6]), the “r2 (Holo)” value worked out at 9.3 ± 0.1 mM⁻¹ s⁻¹ and the “r2 (Apo)” value turned out to be 6.86 ± 0.08 mM⁻¹ s⁻¹. Further, in data set [2] (listed as [Dy(DOTA-malN)]72), the “r1 (Apo)” value turned out to be 0.37 mM⁻¹ s⁻¹. Moreover, in data set [2] (apo/holo not specified), the r1 value result was “below the practical detection limit”. Also, in data set [3], the “Holo/Apo % r1 Change” value is recorded as 4 ± 5% and the “Holo/Apo % r2 Change” value stood at 40 ± 20%. The “r1 (Holo)” value in data set [3] (setting [4]) is 0.201 mM⁻¹ s⁻¹. Further, the “r1 (Apo)” value in data set [3] (setting [5]) is 0.176 mM⁻¹ s⁻¹.

B3: [Gd(NOTA)mal^N)]72-GlnBP: swArM: Gd complex of maleimide-functionalized NOTA attached at Cys72 of T72C-GlnBP (conjugate, UniProt P0AEQ3 23-248, looked up, variant T72C)
Glutamine-binding periplasmic …: ADKKLVVATDTAFVPFEFKQGDKYVGFDVDLWAAIAKELKLDYELKPMDFSGIIPALQTKNVDLALAGITICDERKKAIDFSDGYYKSGLLVMVKANNNDVKSVKDLDGKVVAVKSGTGSVDYAKANIKTKDLRQFPNIDNAYMELGTNRADAVLHDTPNILYFIKTAGNGQFKAVGDSLEAQQYGIAFPKGSDELRDKVNGALKTLRENGTYNEIYKKWFGTEPK
modifications: Gd(NOTA-mal) at Cys72
On to B3, for which the “stability of the swArM in PBS buffer (metal loss, precipitate)” value in data set [1] (PBS buffer) is given as “precipitate formation”.
